Measurements published in paper PMC12090729.
Read-outs that look alike come from different tables or passages of the source.

Legend:
[1] = glycan lost
[2] = anti-ACE2 western blot, HEK293T lysates; conditions: glycan lost; control: WT hACE2
[3] = confocal immunofluorescence, HeLa cells; conditions: glycan lost; control: WT hACE2
[4] = flow cytometry, surface/total MFI ratio, HeLa; conditions: glycan lost; control: WT hACE2
[5] = syncytia formation, GFP+ area, co-transfected HEK293T; conditions: glycan lost; control: WT hACE2
[6] = qRT-PCR of viral N RNA, transfected HEK293T; conditions: glycan lost; control: WT hACE2
[7] = VSVpp infection, BFP+ cells, HEK293T without TMPRSS2; conditions: glycan lost; control: WT hACE2

Substance	other: cell-cell fusion [1]	other: viral entry receptor function, fold_change [1]	expression_or_secretion [2]	localisation_or_trafficking [3]	localisation_or_trafficking [4]	other: cell-cell fusion [5]	other: susceptibility to genuine virus infection [1]	other: susceptibility to genuine virus infection, fold_change [1]	other: Camostat sensitivity of S-mediated entry [1]	other: viral entry receptor function ([1]; control: WT hACE2)	other: susceptibility to genuine virus infection [6]	other: viral entry receptor function [7]	other: susceptibility to genuine virus infection, fold_change [6]
hACE2 (angiotensin-converting enzyme 2): N53A	decreases	no change	no change	no change	no change	no change							
hACE2 (angiotensin-converting enzyme 2): N90A		no change	no change	no change	no change		no change	increases					
hACE2 (angiotensin-converting enzyme 2): N103A		no change	no change	no change	no change								
hACE2 (angiotensin-converting enzyme 2): N322A		increases	no change	no change	no change		increases		decreases	no change	decreases	increases	
hACE2 (angiotensin-converting enzyme 2): N432A		no change	no change	no change	no change								
hACE2 (angiotensin-converting enzyme 2): N546A		no change	no change	no change	no change								
hACE2 (angiotensin-converting enzyme 2): N690A		increases	no change	no change	no change						no change	increases	no change
hACE2 (angiotensin-converting enzyme 2): T92I			no change	no change	no change								
